Publication PMC6778065
Values belong to the substance of their own block, whether it stands above or below them.

Experiments:
[1] = molecular target: Tau (endogenous, primary neurons) (UniProt P19332); assay: proximity ligation assay, high-content screen; conditions: reference: DMSO-treated neurons; sites T348
[2] = molecular target: Tau (endogenous, rat primary hippocampal neurons) (rat (endogenous in primary hippocampal neurons)) (UniProt P19332); assay: proximity ligation; PLA in fixed rat primary hippocampal neuronal cultures (DIV7, 14, 21; lentiviral shBIN1 or overexpression at DIV8, read at DIV14; compound screen incl. Cyclosporin A and U0126 at DIV21); primary antibodies BIN1-99D (mouse) and Tau (rabbit); PLA volume or PLA:Tau ratio
[3] = molecular target: BIN1 (endogenous, primary neurons) (UniProt O08839); assay: proximity ligation assay, high-content screen; conditions: reference: DMSO-treated neurons; sites T231

Chain of Tau (endogenous, rat primary hippocampal neurons) (rat (endogenous in primary hippocampal neurons)) (P19332 other isoform, or with tags, fused parts or gaps): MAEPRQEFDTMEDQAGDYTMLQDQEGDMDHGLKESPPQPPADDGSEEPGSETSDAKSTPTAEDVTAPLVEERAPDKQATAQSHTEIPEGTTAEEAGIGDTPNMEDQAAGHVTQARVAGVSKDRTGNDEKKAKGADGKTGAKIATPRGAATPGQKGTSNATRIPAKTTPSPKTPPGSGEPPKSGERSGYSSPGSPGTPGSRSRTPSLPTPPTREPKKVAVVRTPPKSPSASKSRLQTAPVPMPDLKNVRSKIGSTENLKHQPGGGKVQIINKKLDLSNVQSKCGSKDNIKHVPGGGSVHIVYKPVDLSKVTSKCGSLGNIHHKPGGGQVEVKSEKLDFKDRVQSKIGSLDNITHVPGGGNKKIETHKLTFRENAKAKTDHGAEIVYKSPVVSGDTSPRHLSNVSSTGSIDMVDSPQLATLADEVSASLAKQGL
Chain of BIN1iso1 phosphomimetic T348E, overexpressed in primary neurons (O08539 whole entry, stated change not applied): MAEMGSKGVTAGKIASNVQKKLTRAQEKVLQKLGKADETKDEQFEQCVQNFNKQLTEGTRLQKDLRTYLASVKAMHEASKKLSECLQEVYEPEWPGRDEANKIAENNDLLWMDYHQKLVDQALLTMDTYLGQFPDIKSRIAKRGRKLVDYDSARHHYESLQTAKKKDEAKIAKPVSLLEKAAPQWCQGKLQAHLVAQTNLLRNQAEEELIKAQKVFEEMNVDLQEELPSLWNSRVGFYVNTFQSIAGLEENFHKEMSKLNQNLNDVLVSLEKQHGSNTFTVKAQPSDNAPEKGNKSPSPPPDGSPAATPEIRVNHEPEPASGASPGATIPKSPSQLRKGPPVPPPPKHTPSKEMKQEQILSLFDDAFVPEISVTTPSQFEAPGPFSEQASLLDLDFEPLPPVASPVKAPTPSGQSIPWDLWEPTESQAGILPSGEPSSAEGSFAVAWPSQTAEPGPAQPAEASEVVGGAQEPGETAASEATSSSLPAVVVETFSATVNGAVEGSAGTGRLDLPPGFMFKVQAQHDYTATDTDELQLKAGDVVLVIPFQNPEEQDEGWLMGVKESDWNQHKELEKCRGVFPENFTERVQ

other: percent increase of PLA:Tau ratio [1]: 42.6%
Substance: BIN1 (endogenous, primary neurons) (from UniProt O08839) Cyclosporin A-treated neurons (calcineurin inhibitor)

fold PLA volume against BIN1iso1 (after normalization with BIN1 immunofluorescence) [2]: 2.1 fold
Substance: BIN1iso1 phosphomimetic T348E, overexpressed in primary neurons (from UniProt O08539-1 1-588) (natural protein)

other: percent decrease of PLA:Tau ratio [3]: 36.2%
Substance: Tau (endogenous, primary neurons) (from UniProt P19332) U0126-treated neurons (MEK inhibitor)
